Measured values taken from publication PMC9784018, “Rational Strategy for Designing Peptidomimetic Small Molecules Based on Cyclic Peptides Targeting Protein–Protein Interaction between CTLA-4 and B7-1” (Pharmaceuticals, 2022).

Assays:
[1] = biological target: CTLA-4 (coated for ELISA), P16410; experiment: ELISA; conditions: chain shown with the change; CTLA-4 coated at 5 μg/mL on the ELISA plate
[2] = biological target: CTLA-4 (coated for ELISA) (UniProt P16410); experiment: ELISA; CTLA-4 (5 μg/mL) coated on 384-well plate; purified MBP–peptide–His-tag fusion in 15-point two-fold dilution from 14 μM to 0.85 nM in PBS with 0.5% BSA, 1 h; detected with anti-FLAG M2 peroxidase antibody; EC50 = midpoint concentration
[3] = biological target: CTLA-4 of the CTLA-4:B7-1[Biotinylated] Inhibitor Screening Assay kit (UniProt P16410); experiment: ELISA; CTLA-4:B7-1[Biotinylated] Inhibitor Screening Assay kit (BPS Bioscience) with the MBP–peptide–His-tag fusion protein; data not shown

Chain of CTLA-4 (coated for ELISA), P16410 (P16410 36-161): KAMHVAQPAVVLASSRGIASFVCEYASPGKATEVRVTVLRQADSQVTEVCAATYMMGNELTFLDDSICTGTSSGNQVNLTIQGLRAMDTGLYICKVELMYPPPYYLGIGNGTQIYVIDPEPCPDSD

EC50 [1]	EC50 [2]	IC50 [3]	Binder
81.8 nM	–	–	CLHPFLPIVSHHFCGR [MBP–C4-302–His-tag fusion protein M1L; L6P; V7I; G(+2)R]
–	74.7 nM	1360 nM	CMHPFLPIVSHHFCER [MBP–C4m-3127 peptide–His-tag fusion protein]
